Values of other authors as cited in PMC8061042.
pKd: −log10 of the molar value.

Biological target: MS1
Sequence (main, as listed by the source): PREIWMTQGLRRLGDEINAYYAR

MCL-1 (from UniProt Q07820)
pKd: 8.72
